Our source for the Activity bound (d.p.m.), koff and kon values is patent publication US20110166329A1.

For experiment [1], the target named is human serum amyloid P component (SAP) (human) (UniProt P02743). The experiment in a line: IRMA; SAP non-covalently immobilised; antibody at 0.01 µg/ml; radiolabelled sheep anti-mouse IgG2a.
The target is the same in experiment [2]. The experiment in a line: IRMA; SAP non-covalently immobilised; antibody at 1 µg/ml; radiolabelled sheep anti-mouse IgG2a.
The target is the same in experiment [3]. Put plainly: IRMA; SAP alone covalently immobilised; in calcium; radiolabelled sheep anti-mouse IgG; mean n=3.
The target is the same in experiment [4]. Put plainly: IRMA; SAP alone captured on immobilised sheep polyclonal anti-human SAP; in calcium; radiolabelled sheep anti-mouse IgG; mean n=3.
The target is the same in experiment [5]. The experiment in a line: IRMA; SAP non-covalently immobilised; antibody at 10 µg/ml; radiolabelled sheep anti-mouse IgG2a.
Experiment [6] concerns the target human SAP complexed with CPHPC and covalently cross linked with BS3 (human) (UniProt P02743). Put plainly: IRMA; SAP-CPHPC complex captured on immobilised sheep polyclonal anti-human SAP; in calcium; radiolabelled sheep anti-mouse IgG; mean n=3.
Experiment [7] has as its target human serum amyloid P component (SAP) (human) (UniProt P02743). Put plainly: IRMA; SAP non-covalently immobilised; antibody at 10 µg/ml; radiolabelled sheep polyvalent anti-mouse IgG.
Experiment [8] shares this target. The experiment in a line: IRMA; SAP non-covalently immobilised; antibody at 0.001 µg/ml; radiolabelled sheep anti-mouse IgG2a.
The target of experiment [9] is human SAP complexed with CPHPC and covalently cross linked with BS3 (human) (UniProt P02743). Put plainly: IRMA; SAP-CPHPC complex covalently immobilised; in EDTA; radiolabelled sheep anti-mouse IgG; mean n=3.
Chain of human SAP complexed with CPHPC and covalently cross linked with BS3 (human) (P02743 20-223, one chain of several): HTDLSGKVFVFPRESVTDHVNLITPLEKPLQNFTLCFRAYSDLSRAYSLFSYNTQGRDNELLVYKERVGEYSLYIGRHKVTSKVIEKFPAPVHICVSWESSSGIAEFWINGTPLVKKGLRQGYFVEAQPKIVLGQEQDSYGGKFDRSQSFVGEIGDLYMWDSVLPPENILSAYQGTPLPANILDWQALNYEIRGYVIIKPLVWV
The target of experiment [10] is human serum amyloid P component (SAP) (human) (UniProt P02743). The experiment in a line: IRMA; SAP non-covalently immobilised; antibody at 0.1 µg/ml; radiolabelled sheep polyvalent anti-mouse IgG.
The target is the same in experiment [11]. The experiment in a line: IRMA; SAP non-covalently immobilised; antibody at 1 µg/ml; radiolabelled sheep polyvalent anti-mouse IgG.
Experiment [12] shares this target. Put plainly: IRMA; SAP non-covalently immobilised; antibody at 0.01 µg/ml; radiolabelled sheep polyvalent anti-mouse IgG.
For experiment [13] the target is unchanged. The experiment in a line: IRMA; SAP non-covalently immobilised; antibody at 100 µg/ml; radiolabelled sheep polyvalent anti-mouse IgG.
The target is the same in experiment [14]. Put plainly: Biacore; isolated pure SAP alone immobilised on the chip. (In general: Surface plasmon resonance follows binding to a sensor surface in real time, without labels.)
Experiment [15] has the same target. The experiment in a line: IRMA; SAP non-covalently immobilised; antibody at 100 µg/ml; radiolabelled sheep anti-mouse IgG2a.
For experiment [16] the target is unchanged. Put plainly: IRMA; SAP non-covalently immobilised; antibody at 0.1 µg/ml; radiolabelled sheep anti-mouse IgG2a.
Experiment [17] has the same target. The experiment in a line: IRMA; SAP non-covalently immobilised; antibody at 0.001 µg/ml; radiolabelled sheep polyvalent anti-mouse IgG.
Experiment [18] has the same target. The experiment in a line: IRMA; SAP alone covalently immobilised; in EDTA; radiolabelled sheep anti-mouse IgG; mean n=3.
Experiment [19] concerns the target human SAP complexed with CPHPC and covalently cross linked with BS3 (human) (UniProt P02743). The experiment in a line: IRMA; SAP-CPHPC complex covalently immobilised; in calcium; radiolabelled sheep anti-mouse IgG; mean n=3.

For orientation: koff means the first-order rate constant of dissociation. In general, kon refers to the rate constant with which the complex forms.

Chain of human serum amyloid P component (SAP) (human) (P02743 20-223): as the sequence (P02743 20-223, one chain of several) above

On to SAP-5 (antibody), for which the Activity bound (d.p.m.) stood at 222 d.p.m in experiment [1]; 1650 d.p.m in experiment [2]; 5580 d.p.m in [3]; 9310 d.p.m in [4]; 1980 d.p.m in experiment [5]; 7120 d.p.m in experiment [6]. For the same substance, the Activity bound (d.p.m.) in experiment [7] was determined as 15400 d.p.m; in experiment [8], 94 d.p.m; in experiment [9], 5140 d.p.m; in experiment [10], 4560 d.p.m; in [11], 12100 d.p.m; in [12], 902 d.p.m. Besides, the Activity bound (d.p.m.) in experiment [13] was found to be 16200 d.p.m; in [15] it was 2200 d.p.m; in experiment [16], 589 d.p.m; in experiment [17], 195 d.p.m; in [18] it was 4050 d.p.m; in experiment [19] it was 6160 d.p.m. In addition, the koff in experiment [14] came to 6e-05 s⁻¹. The substance further showed an association rate constant (kon) in experiment [14] of 20000 M⁻¹ s⁻¹.
